Data taken from publication PMC6175940, “Increasing the distance between two monomers of topoisomerase IIβ under the action of antitumor agent 4β-sulfur-(benzimidazole) 4′-demethylepipodophyllotoxin”.

Molecular target: hTop2βcore (human topoisomerase IIβ catalytic core) (human, UniProt Q02880 450-1206)
Assay: X-ray crystallography (2.54 Å); 100 mM MgCl2; crystallized with 2 mM compound C-Bi (not visible in the structure); cleavage complex; Crystallization: protein and DNA (1.2-fold molar ratio to protein) with 2 mM C-Bi; reservoir 100 mM MgCl2, 50 mM sodium citrate pH 5.3, 20% MPD, 0.05% ethyl acetate, 4 °C; protein buffer 30 mM Tris-HCl pH 7.5, 70 mM NaCl, 2 mM β-mercaptoethanol, 1 mM EDTA
Conditions: protein: recombinant; chain copies: 2; blunt; self-complementary, 2 copies of the same strand

hTop2βcore (human topoisomerase IIβ catalytic core), sequence (Q02880 450-1206): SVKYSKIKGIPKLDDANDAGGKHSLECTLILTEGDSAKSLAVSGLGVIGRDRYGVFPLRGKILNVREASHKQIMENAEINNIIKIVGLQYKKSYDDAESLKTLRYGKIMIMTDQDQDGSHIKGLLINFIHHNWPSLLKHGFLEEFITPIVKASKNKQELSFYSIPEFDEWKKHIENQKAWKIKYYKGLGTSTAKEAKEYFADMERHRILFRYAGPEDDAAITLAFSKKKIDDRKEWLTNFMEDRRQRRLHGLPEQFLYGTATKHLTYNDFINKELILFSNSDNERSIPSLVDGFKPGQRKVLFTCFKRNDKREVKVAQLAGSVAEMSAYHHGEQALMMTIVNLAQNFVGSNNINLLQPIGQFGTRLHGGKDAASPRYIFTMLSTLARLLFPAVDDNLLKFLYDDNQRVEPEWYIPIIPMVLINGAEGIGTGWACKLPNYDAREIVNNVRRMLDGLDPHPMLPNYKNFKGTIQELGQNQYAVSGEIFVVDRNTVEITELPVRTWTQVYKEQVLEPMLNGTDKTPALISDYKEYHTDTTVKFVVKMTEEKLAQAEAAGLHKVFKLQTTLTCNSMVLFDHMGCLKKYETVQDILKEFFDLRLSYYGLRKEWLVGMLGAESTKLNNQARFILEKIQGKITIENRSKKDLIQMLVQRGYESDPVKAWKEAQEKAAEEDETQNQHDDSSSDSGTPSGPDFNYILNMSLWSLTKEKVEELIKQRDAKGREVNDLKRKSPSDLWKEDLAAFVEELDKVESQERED

B1: 20-bp DNA substrate for crystallography (dsDNA)
DNA 1: AGCCGAGCTGCAGCTCGGCT
DNA 2: AGCCGAGCTGCAGCTCGGCT
binding result: binds
